# Laboratory results: patent US20150004189A1 (published 2015)
# T1: HLA-DP DPB1*0401 (human)
# T1 chain 1: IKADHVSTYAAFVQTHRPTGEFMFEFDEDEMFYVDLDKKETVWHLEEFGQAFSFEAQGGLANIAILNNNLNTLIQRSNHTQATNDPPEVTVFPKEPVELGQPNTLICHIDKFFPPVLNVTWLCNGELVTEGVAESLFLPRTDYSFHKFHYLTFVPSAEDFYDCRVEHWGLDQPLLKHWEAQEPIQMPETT
# T1 chain 2: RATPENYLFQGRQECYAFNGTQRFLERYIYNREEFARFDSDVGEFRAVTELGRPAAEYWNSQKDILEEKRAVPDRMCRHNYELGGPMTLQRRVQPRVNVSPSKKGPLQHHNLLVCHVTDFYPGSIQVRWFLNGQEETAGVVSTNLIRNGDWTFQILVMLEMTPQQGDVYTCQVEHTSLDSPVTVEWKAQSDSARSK
# T2: HLA-DP DPB1*0201 (human)
# T2 chain 1: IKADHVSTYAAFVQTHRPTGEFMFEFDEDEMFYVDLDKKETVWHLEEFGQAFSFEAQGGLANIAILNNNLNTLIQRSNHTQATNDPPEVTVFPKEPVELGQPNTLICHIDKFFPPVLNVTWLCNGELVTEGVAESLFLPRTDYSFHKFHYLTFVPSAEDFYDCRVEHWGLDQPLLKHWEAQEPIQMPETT
# T2 chain 2: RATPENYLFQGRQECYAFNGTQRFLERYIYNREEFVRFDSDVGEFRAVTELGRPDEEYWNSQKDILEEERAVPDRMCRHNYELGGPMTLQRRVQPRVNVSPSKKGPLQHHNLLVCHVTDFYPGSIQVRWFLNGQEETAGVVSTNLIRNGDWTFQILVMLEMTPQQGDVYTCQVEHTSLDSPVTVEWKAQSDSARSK
# Legend:
# [1] = biological target: HLA-DQ molecule DQB1*0502 (human); assay: inhibition of radiolabeled peptide binding to purified HLA
# [2] = biological target: HLA-DQ molecule DQB1*0202 (human); assay: as above
# [3] = biological target: HLA-DQ molecule DQB1*0602 (human); assay: as above
# HLA-DP DPB1*0401 = biological target: T1, HLA-DP DPB1*0401; assay: inhibition of radiolabeled peptide binding to purified HLA-DP
# [4] = biological target: HLA-DQ molecule DQB1*0503 (human); assay: inhibition of radiolabeled peptide binding to purified HLA
# HLA-DP DPB1*0201 = biological target: T2, HLA-DP DPB1*0201; assay: inhibition of radiolabeled peptide binding to purified HLA-DP
# [5] = biological target: HLA DQ molecule DQB1*0503 (human); assay: inhibition of radiolabeled peptide binding to purified HLA class II
# [6] = biological target: HLA DQ molecule DQB1*0502 (human); assay: as above
# [7] = biological target: HLA DQ molecule DQB1*0202 (human); assay: as above
# [8] = biological target: HLA DQ molecule DQB1*0503 (human); assay: as above; remark: listed apart in the source
# [9] = biological target: HLA-DP molecule DPB1*2001 (human); assay: inhibition of radiolabeled peptide binding to purified HLA-DP
# [10] = biological target: HLA-DQ molecule DQB1*0502 (human); assay: inhibition of radiolabeled peptide binding to purified HLA-DQ
# [11] = biological target: HLA-DQ molecule DQB1*0503 (human); assay: as above
# [12] = biological target: HLA-DQ molecule DQB1*0602 (human); assay: as above
# [13] = biological target: HLA-DQ molecule DQB1*0202 (human); assay: as above
binder,measurement,setting,value
YVGHDEFDAFVAYHI [Der p 4 peptide 3324.0975 (position 476)],IC50,[1],5.04 µM
same,IC50,[2],8.14 µM
IVLNHMTGAQSGKGT [Der p 4 peptide 3324.0987 (position 96)],IC50,[3],0.065 µM
FSGVAATESAYLAYR [Der f 1 (136-150) peptide 3324.0666],IC50,HLA-DP DPB1*0401,1.44 µM
REALAQTHSAIAVII [Der p 1 peptide 3324.0840 (position 226)],IC50,[4],32.1 µM
same,IC50,[2],0.629 µM
LEKISNEIKIVATPD [Bet v 1 (96-110) peptide 3324.0353],IC50,HLA-DP DPB1*0401,6.82 µM
same,IC50,HLA-DP DPB1*0201,7.57 µM
IEFRFYKEITNVFRG [Der p 4 peptide 3324.0976 (position 251)],IC50,[4],4.37 µM
same,IC50,[3],0.318 µM
same,IC50,[1],5.52 µM
same,IC50,[2],6.2 µM
"IFYDVFFAVANGNEL [Fel d 1 2 (26-40) peptide IFYDVFFAVANGNEL, Peptide ID 3324.1052]",IC50,[5],8.13 µM
same,IC50,[6],6.65 µM
PSVIPAARLFKAFIL [Aln g 1 (11-25) peptide 3324.0004],IC50,HLA-DP DPB1*0401,7.28 µM
same,IC50,HLA-DP DPB1*0201,0.063 µM
RTLNKIVYIKPAKNI [Bet v 6 (206-220) peptide 3324.0387],IC50,HLA-DP DPB1*0401,0.041 µM
GGSILKISNKFHTKG [Aln g 1 (111-125) peptide 3324.0007],IC50,HLA-DP DPB1*0401,18.5 µM
same,IC50,HLA-DP DPB1*0201,0.843 µM
YQIAFSRGNRAFIAI [Der p 4 peptide 3324.0980 (position 411)],IC50,[4],1.41 µM
same,IC50,[2],8.72 µM
RGIEYIQHNGVVQES [Der p 1 peptide 3324.0831 (position 176)],IC50,[3],0.859 µM
SGVAATESAYLAYRN [Der p 1 peptide 3324.0829 (position 136)],IC50,[2],0.871 µM
GGSILKISNKFHTKG [Aln g 1 peptide 3324.0007 (position 111)],IC50,[2],50 µM
GGSILKISNKYHTKG [Bet v 1 peptide 3324.0352 (position 111)],IC50,[3],6.06 µM
"DAFIAALTEALRVIA [Pha a 5 peptide, position 121, DAFIAALTEALRVIA (Peptide ID 3324.1432)]",IC50,[7],2.04 µM
same,IC50,[8],50 µM
SRGNRAFIAINLQKN [Der p 4 peptide 3324.0974 (position 416)],IC50,[4],0.084 µM
same,IC50,[3],0.098 µM
same,IC50,[1],0.546 µM
same,IC50,[2],7.39 µM
LEKISNEIKIVATPD [Bet v 1 peptide 3324.0353 (position 96)],IC50,[4],8.89 µM
same,IC50,[3],0.019 µM
same,IC50,[1],5.09 µM
same,IC50,[2],8.67 µM
"LIEKINAGFKAAVAA [Lol p 5 1 peptide, position 71, LIEKINAGFKAAVAA (Peptide ID 3324.1175)]",IC50,[7],50 µM
same,IC50,[8],0.147 µM
"NVFDEVIPTAFTVGK [Lol p 3 peptide, position 76, NVFDEVIPTAFTVGK (Peptide ID 3324.1141), listing 1 of 2 here]",IC50,[9],13.2 µM
SCWAFSGVAATESAY [Der p 1 peptide 3324.0832 (position 131)],IC50,[1],4.4 µM
IVYIKPAKNIYSFNE [Bet v 6 (211-225) peptide IVYIKPAKNIYSFNE],IC50,[10],5.83 µM
same,IC50,[11],0.65 µM
same,IC50,[12],0.019 µM
DIYNYMEPYVSKVDP [Dac g 4 (1-15) peptide DIYNYMEPYVSKVDP],IC50,[10],2.02 µM
KALWIIFSQNMNIKL [Cup a 1 (66-80) peptide KALWIIFSQNMNIKL],IC50,[10],50 µM
same,IC50,[11],29 µM
FDAFVAYHIGARIVS [Der p 4 (482-496) peptide 3324.0971],IC50,HLA-DP DPB1*0401,0.071 µM
"AFLLLGLAGNSSPSA [Cla h 5 (6-20) peptide, Peptide ID 3324.0576]",IC50,[6],0.718 µM
KAFVLDSDNLIPKVV [Que a 1 (21-35) peptide KAFVLDSDNLIPKVV],IC50,[13],0.194 µM
same,IC50,[11],2.64 µM
NLALSIKYNKEGDSM [Dac g 2 (16-30) peptide NLALSIKYNKEGDSM],IC50,[11],8.96 µM
same,IC50,[12],0.258 µM
SRGNRAFIAINLQKN [Der p 4 (416-430) peptide 3324.0974],IC50,HLA-DP DPB1*0201,0.0072 µM
IFSQNMNIKLQMPLY [Cup a 1 (71-85) peptide IFSQNMNIKLQMPLY],IC50,[11],4.9 µM
same,IC50,[12],0.262 µM
IEFRFYKEITNVFRG [Der p 4 (251-265) peptide 3324.0976],IC50,HLA-DP DPB1*0201,0.035 µM
"GTGSLVITASMSGHI [Cla h 8 (151-165) peptide GTGSLVITASMSGHI, Peptide ID 3324.0603]",IC50,[5],13.8 µM
YVGHDEFDAFVAYHI [Der p 4 (476-490) peptide 3324.0975],IC50,HLA-DP DPB1*0401,0.273 µM
same,IC50,HLA-DP DPB1*0201,0.177 µM
EHRWREIYNMVKFRM [Der p 4 peptide 3324.0986 (position 381)],IC50,[4],4.24 µM
same,IC50,[1],8.94 µM
RTLNKIVYIKPAKNI [Bet v 6 peptide 3324.0387 (position 206)],IC50,[4],3.46 µM
same,IC50,[3],0.058 µM
same,IC50,[2],12.5 µM
PSVIPAARLFKAFIL [Aln g 1 peptide 3324.0004 (position 11)],IC50,[4],1.45 µM
same,IC50,[2],11.2 µM
"SDAKTLVLNIKYTRP [Lol p 3 peptide, position 11, SDAKTLVLNIKYTRP (Peptide ID 3324.1142)]",IC50,[9],24 µM
AFMLAWNYGVPRVMS [Der p 4 (321-335) peptide 3324.0977],IC50,HLA-DP DPB1*0401,5.16 µM
same,IC50,HLA-DP DPB1*0201,0.185 µM
"QIDAFIANAGATADS [Cla h 8 (101-115) peptide QIDAFIANAGATADS, Peptide ID 3324.0601]",IC50,[5],0.084 µM
same,IC50,[6],0.819 µM
EHRWREIYNMVKFRM [Der p 4 (381-395) peptide 3324.0986],IC50,HLA-DP DPB1*0401,0.549 µM
same,IC50,HLA-DP DPB1*0201,0.109 µM
"GGRLAFQEFMIVPSG [Cla h 6 (161-175) peptide GGRLAFQEFMIVPSG, Peptide ID 3324.0588]",IC50,[5],2.44 µM
same,IC50,[6],4.95 µM
ASVIPPARLFKAFVL [Que a 1 (11-25) peptide ASVIPPARLFKAFVL],IC50,[11],1.95 µM
"QKLMEDINVGFKAAV [Poa p 5 peptide, position 51, QKLMEDINVGFKAAV (Peptide ID 3324.1580)]",IC50,[9],2.18 µM
"NVFDEVIPTAFTVGK [Lol p 3 peptide, position 76, NVFDEVIPTAFTVGK (Peptide ID 3324.1141), listing 2 of 2 here]",IC50,[7],1.7 µM
same,IC50,[8],2.9 µM
IIFSQNMNIKLKMPL [Cup s 1 (91-105) peptide IIFSQNMNIKLKMPL],IC50,[11],36 µM
same,IC50,[12],1.86 µM
FDAFVAYHIGARIVS [Der p 4 peptide 3324.0971 (position 482)],IC50,[4],1.08 µM
same,IC50,[3],0.054 µM
same,IC50,[2],4.75 µM
EIYNMVKFRMIAGQE [Der p 4 (386-400) peptide 3324.0978],IC50,HLA-DP DPB1*0401,0.122 µM
same,IC50,HLA-DP DPB1*0201,0.0053 µM
AFMLAWNYGVPRVMS [Der p 4 peptide 3324.0977 (position 321)],IC50,[4],0.339 µM
same,IC50,[3],0.762 µM
same,IC50,[1],0.992 µM
same,IC50,[2],8.36 µM
"GCIHMARSLANEWRD [Cla h 8 (181-195) peptide GCIHMARSLANEWRD, Peptide ID 3324.0602]",IC50,[5],0.649 µM
same,IC50,[6],0.673 µM
"KELKGAYVYFASDAS [Cla h 8 (236-250) peptide KELKGAYVYFASDAS, Peptide ID 3324.0598]",IC50,[5],0.518 µM
same,IC50,[6],4.67 µM
GGSILKISNKYHTKG [Bet v 1 (111-125) peptide 3324.0352],IC50,HLA-DP DPB1*0401,10.5 µM
